These results are taken from the DeepSol protein solubility set.

The series can be described thus: soluble on expression in E. coli; label from the status in PepcDB or PDB records.
Take “MGHHHHHHSHMRLLKSELGSFITDYFQNQLLAKGLFFVEEKIKLCEGENRIEVLAEVWDHFFTETLPTLQAIFYPVQSVHEPTGPSESYLQLEELVKQVVSPFLGISGDRSFSGPTYTLARRHSRVRPKVTVLNYASPITAVSRPLNEMVLTPLTEQEGEAYLEKCGSVRRHTVANAHSDIQLLAMATMMHSGLGEEASSENKCLLLPPSFPPPHRQCSSEPNITDNPDGLEEGARGSQEGSELNCASLS”: the “soluble on expression in E. coli” value was “not soluble”. Then “MGSDKIHHHHHHMRRRHVGVGAELTAFRILAAISCERLFWETGSRNQAVKTRAESANREISMIRTAMIAATALAASLAASAPAFAADVVGLWATPGNGGQVEISRCGNSLCGKLVTSDHIKTNPGLKDIKNKDESQRSRTLKNLQMLYDFSGGPTKWTGGKVYNPEDGGVYAGTIELVSTTELKLKGCVVAPLCKTQKWTRIR”, with “not soluble”; and “MGSDKIHHHHHHMTIMSIGIIIASHGEFAAGIHQSGSMIFGEQEKVQVVTFMPNEGPDDLYAKFNNAVAAFDAEDEVLVLADLWSGSPFNQASRVMGENPERKFAIITGLNLPMLIQAYTERLMDAAAGVEKVAANIIKEAKDGIKALPEELNPVEEVASAAAAPVAQTAIPEGTVIGDGKLKINLARLDTRLLHGQVATAWTPDSKANRIIVASDNVAKDDLRKELIKQAAPGNVKANVVPIQKLIEISKDPRFGETHALILFETPQDALRAIEGGVPIKTLNVGSMAHSTGKTLVNTVLSMDKEDVATFEKMRDLGVEFDVRKVPNDSKKDLFDLINKANVK”, with “not soluble”. In the case of “MGSDKIHHHHHHMASKATSIDIAYRAGVSQSTVSRALRNSPLVNLETRQRIQAIAKELNYKVDKNASNLRMQNSHTLALLICEDPTNDESMINPFFLSMLGSITRATARQGYDLLVSFQQLSTDWHADYEDSNKADGIILLGYGDYMDYAHKLDKLIEKNTHFVIWGAEHNNKAVLSIGCDNHQGGFVATEHLLGLGHKHIAFLGDSSSRSPEFRDRYLGHVDALQSTGIEADTQLQHDAINTEASGYHAANVLLDSGVTFDAIFTASDLIAIGAIRALKKRGVLVPEQVAVVGYDDIPVASFANPALTTIKQDTQFAGEILVESVLKLIRGQEVSQRLIKTHLVVRSSCGANVEDN” it was “not soluble”; in that of “GPGSMRNLVREGITPPVLVFVQSVERSKELYEEIRMEGLHMAIMHAKMTVEQREETVLQFRLGKIWVLVTTELLARGIDFKNVGTVINFDFPATVDSYIHRVGRTGRAGKEGTAITFFTEDDKERLPPIAKVMQDSGNAVEDWILGIKVDRSTRRRLERTTPQRTIVSTRKRMLVAQQRVQRQYRRLEAEKAAKQASKRSKGCGDCDRDDGDDSTDDA”, “soluble”; in that of “MPAAQEVQISIAEVIEVRGYGLNAPELLSVAVSAADRLPPCPKGTVFDTENVFLNSKGELVIKTVATSRVDRSFVPPEWAKGEEDAQAAAVYCLGAVLRAAGAEEAADVDLFSLVNILTVAMTGTRPTAHRMGQMARNQLRGRDPASMLMCIYEELMGDEDTNQKRPNRKINFLNEKSMF”, “not soluble”. In the case of “MAHHHHHHMPKSSPPDEHKVLIKKLTHACASYDSASRKYLTAVKALDSSLEAVAIAIRELSQGEESEDAVTRVDRFCTSVDRHMAGSSAGASFGHNKSGRLSDSAAFNGAEYPFAAYMSDFTREVSSAVDELKEILKKIEKSRSKHDDLVAKYNKKRSEVDTMEMKLAKKNQGIATNEKYSHKLSDRDALKVQVDTGERELRAEFMELLQRRTRILLQVVHGMQTHSSKYYSHLSKAMQA” it was “soluble”; in that of “SSFKREGDDWSQLNVLKKRRVGDLLASYIPEDEALMLRDGRFACAICPHRPVLDTLAMLTAHRAGKKHLSSLKLFYGKKQTGKGTEQNPRQQNELKTESKTEAPLLTQTRIITQNALHRAPHYNSCCRRKHRPEAPAPSVSSPPLPTAEVQLQSAEISKEPEPRERSDAKESAALLASAPMSPTKRRVLNHYLTLRSSGWVPDGRGRWIKDENVEFDSDEEEPPDLPLD”, “soluble”; in that of “MSLAPNPYLTGRTLNIAHQGGEALWPSNTLTAYRGAVALGVDLLEMDLHATRDGALVLSHDATLDRLTDTQGRIADLTLEQVLRADAGYTLTPAGGSGFPFRGQGVQVAQLKDVLREFPNTPLIIELKQASPSIAAPFCAELRRAGATGRVIAASFSDAALNEFRRLCPEVMTSMTERELRPLVLLSKVGLSALAPTPGQVAQVPVRSGGIEIVTPAFVRALHARGVAVQVWTIDDEAEMRRLVQMGVDGVITNRPDLLKKVLAEREGHHHHHH”, “not soluble”.
